Measured values taken from PMC314469, “Protein Interaction Networks by Proteome Peptide Scanning” (PLoS Biology, 2004).

T1: amphyphisin SH3 (AMPH_HUMAN), P49418
T1 chain: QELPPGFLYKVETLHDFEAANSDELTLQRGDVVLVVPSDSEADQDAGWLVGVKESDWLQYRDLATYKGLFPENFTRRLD


Tests used:
[1] = target: endophilin SH3 (SH3G2_HUMAN), Q99962; experiment: SPOT array
[2] = target: T1, amphyphisin SH3 (AMPH_HUMAN), P49418; experiment: SPOT array

| Binder | normalised SPOT signal, Boehringer light units (BLU); mean over the file's lines of this peptide [1] | normalised SPOT signal, Boehringer light units (BLU); mean over the file's lines of this peptide [2] |
| --- | --- | --- |
| IRQILSRPERLLFI [Q9C000 395-408] | 398 | 973 |
| ISFIIKRPFLEPKK [P78347 180-193] | 130 | 42.4 |
| ISWGLRRPIRLQMQ [P50749 58-71] | 730 | 929 |
| ITKSLRRPETSYRQ [P24821 757-770] | 46.8 | 39.1 |
| IPQRPSRPARRPLG [Q9HBL3 242-255] | 84800 | 27600 |
| IPERPLRPPSEKRA [Q9Y2W3 72-86] | 7610 | 11100 |
| ILRPPRRPRKPKTL [Q9NYS8 1488-1501] | 1310 | 7790 |
| ISTPPSRPPQVKTA [Q01826 463-477] | 1960 | 216 |
| ALTLPRRPFLHSST [Q9H6Z2 106-119] | 7630 | 1530 |
| ALRWLRRPEDRAFS [Q13472 9-22] | 353 | 48 |
| ALSRLARPQRLPVA [P80365 68-81] | 492 | 1350 |
| ITGTLKRPSLPEEE [O14514 1249-1262] | 18.8 | 36.3 |
| ILPSLSRPARSDQA [O43149 568-581] | 366 | 1320 |
| ILSPPRRPRHSQPA [Q8WYU9 180-193] | 797 | 344 |
| IMFDLRRPPQNHTY [Q9HCC8 352-365] | 230 | 62.4 |
| IRLPPARPPTPGRS [AAM34265 504-518] | 19900 | 4960 |
| IRSALKRPVEQPLG [P48165 231-244] | 0 | 26.3 |
| ISFHPKRPMHILLH [Q96SZ9 375-388] | 524 | 56.1 |
| IPREPGRPGKGNYW [Q12950 67-80] | 32.8 | 59 |
| ILGPPRRPSRHDNS [Q9NZN5 600-613] | 5800 | 17700 |
| IRGLLARPAKLQVQ [P07202 539-552] | 54.1 | 97.3 |

| Binder | normalised SPOT signal, Boehringer light units (BLU); mean over the file's lines of this peptide [1] | normalised SPOT signal, Boehringer light units (BLU); mean over the file's lines of this peptide [2] |
| --- | --- | --- |
| ITLTPVRPDRTPRP [Q9H5F9 434-447] | 6160 | 6730 |
| IQVAFRRPETPSSG [Q9H8D9 51-64] | 5.6 | 55.7 |
| IQEALKRPIKQKRK [Q9Y635 106-119] | 89.8 | 92.2 |
| ISSQIERPIRIVAL [O75643 1042-1055] | 173 | 535 |
| ISELIKRPNVSPKV [Q9NX58 81-94] | 14.7 | 30.6 |
| IQEALKRPMKQKRK [Q92926 129-142] | 109 | 71.7 |
| ISSVPRRPARALHP [Q9HBK4 869-882] | 5010 | 12900 |
| ITVSPNKPPAVSPG [Q9UFP7 465-479] | 59.3 | 41.6 |
| ISMKFLRPLRVLSQ [Q01118 1027-1040] | 925 | 13100 |
| ILLSISRPYKTKPT [Q9Y5J0 40-53] | 130 | 173 |
| ILPDFKRPASFGTY [O43844 486-499] | 23.1 | 30.9 |
| IRLSPNRPPLGGSS [P98161 2462-2476] | 1100 | 186 |
| ISFHPKRPVHILLH [Q96T13 405-418] | 173 | 27.3 |
| IQFVIKRPELLTEG [O95444 633-646] | 29.8 | 28.5 |
| ILGFPLRPNRGLYQ [O95972 116-129] | 3140 | 8510 |
| ISHRLRRPGAPPST [Q9H669 126-139] | 120 | 9.8 |
| IRFKLKRPLEDGGR [O95444 196-209] | 39.9 | 38.3 |
| ALSLPEKPPRGEQG [O94819 607-621] | 112 | 727 |
| IQAPPPRPPKNQGL [Q9BYB6 252-266] | 2290 | 861 |
| ISRRLRRPPHVGRA [O00155 224-237] | 5.9 | 56.5 |
| ILGSPARPPFSFQP [Q96C66 716-730] | 1550 | 33 |
